{"source": "paper PMC10834949", "about": "(2024)", "binders": {"B1": {"name": "BRICHOS (proSP-C) BRICHOS (protein)", "chain": "TATFSIGSTGLVVYDYQQLLIAYKPAPGTCCYIMKIAPESIPSLEALTRKVHNFQMECSLQAKPAVPTSKLGQAEGRDAGSAPSGGDPAFLGMAVSTLCGEVPLYYI"}}, "target": "Aβ42 fibrils Aβ42 (Homo sapiens, UniProt P05067)", "sequence (P05067 672-713)": "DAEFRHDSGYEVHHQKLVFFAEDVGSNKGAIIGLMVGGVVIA", "test": "SPR"}
{"binder": "B1", "values": [{"measurement": "Kd", "result": 12.9, "unit": "nM"}]}
